The values below come from patent US20190144917.

Data set [1] has as its system S1: Biotin-CGPVGLIGK(Cy7)eGvndneeGffsar-NH2.
Data set [2] has as its system S3: Biotin-CGPLGVRGKK(Cy7)eGvndneeGffsar-NH2.
The subject of data set [3] is C1-NPs: fluorescein-conjugated MMP substrate peptide C1 (FAM-sk-PLGLEEA-GC) coupled to iron oxide nanoparticles.
The test system of data set [4] is DMNPE-veiled C1-NPs (STREAMs).
Data set [5] relates to S2: Biotin-CGPVPLSLVMK(Cy7)eGvndneeGffsar-NH2.
S2: Biotin-CGPVPLSLVMK(Cy7)eGvndneeGffsar-NH2, sequence (chain, as listed by the source): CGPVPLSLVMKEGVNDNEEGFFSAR

recombinant MMP9, sequence (chain, as listed by the source): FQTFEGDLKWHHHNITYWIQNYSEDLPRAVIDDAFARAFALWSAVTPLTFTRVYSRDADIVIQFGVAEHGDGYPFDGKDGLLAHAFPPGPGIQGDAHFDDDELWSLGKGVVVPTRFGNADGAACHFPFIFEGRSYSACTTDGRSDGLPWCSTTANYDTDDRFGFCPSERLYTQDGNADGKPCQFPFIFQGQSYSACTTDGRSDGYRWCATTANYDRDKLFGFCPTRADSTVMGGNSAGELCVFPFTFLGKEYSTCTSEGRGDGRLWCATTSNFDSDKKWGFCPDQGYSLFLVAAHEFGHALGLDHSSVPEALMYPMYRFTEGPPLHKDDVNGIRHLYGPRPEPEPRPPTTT
S1: Biotin-CGPVGLIGK(Cy7)eGvndneeGffsar-NH2, sequence (chain, as listed by the source): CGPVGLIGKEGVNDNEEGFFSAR
recombinant MMP2, sequence (chain, as listed by the source): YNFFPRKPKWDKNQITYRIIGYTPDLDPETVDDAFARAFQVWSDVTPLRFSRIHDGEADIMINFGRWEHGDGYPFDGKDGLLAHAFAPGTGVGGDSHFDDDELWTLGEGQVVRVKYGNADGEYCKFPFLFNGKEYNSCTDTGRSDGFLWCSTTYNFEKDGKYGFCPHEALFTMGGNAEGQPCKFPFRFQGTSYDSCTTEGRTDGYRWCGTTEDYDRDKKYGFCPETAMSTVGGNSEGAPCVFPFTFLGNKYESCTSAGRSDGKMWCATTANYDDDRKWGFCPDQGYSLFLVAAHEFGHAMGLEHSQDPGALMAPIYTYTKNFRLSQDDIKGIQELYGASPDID
S3: Biotin-CGPLGVRGKK(Cy7)eGvndneeGffsar-NH2, sequence (chain, as listed by the source): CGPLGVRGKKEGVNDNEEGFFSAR
recombinant MMP19, sequence (chain, as listed by the source): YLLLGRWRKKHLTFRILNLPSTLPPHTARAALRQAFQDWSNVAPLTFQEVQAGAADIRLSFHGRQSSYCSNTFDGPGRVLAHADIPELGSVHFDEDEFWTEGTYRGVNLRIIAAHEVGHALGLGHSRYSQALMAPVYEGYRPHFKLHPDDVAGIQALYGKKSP

For the substance recombinant MMP2, the “relative proteolysis (Cy7 signal after streptavidin depletion of uncleaved peptide)” value (from here on “relative proteolysis”) in data set [1] is “responded primarily to MMP2 and MMP9”; in data set [2] it was “responded primarily to MMP2 and MMP9”.

For recombinant MMP9, the “relative proteolysis” value was “responded primarily to MMP2 and MMP9” in data set [1]; “responded primarily to MMP2 and MMP9” in data set [2]. Also, the “catalytic efficiency (Michaelis-Menten fit)” value in data set [3] was “catalytic efficiencies>10^3 M^-1 s^-1 and 10^4 M^-1 s^-1, respectively”. In addition, the “proteolysis (fluorescence dequenching)” value is “significantly cleaved by MMP13, 7, 1, and 9” in data set [3]; “marked reduction in proteolysis” in data set [4].

As for recombinant MMP13, in data set [3], the “fluorescence dequenching measurements of protease cleavage” value is “with MMP13 as the most efficient”; the “proteolysis (fluorescence dequenching)” value was “significantly cleaved by MMP13, 7, 1, and 9”. Also, the “proteolysis (fluorescence dequenching)” value in data set [4] is “marked reduction in proteolysis”.

As for recombinant MMP19, the “relative proteolysis” value in data set [5] was “cleaved efficiently by MMP7 and MMP19”.

Consider recombinant thrombin, for which the “cleavage monitored by fluorescence release” value in data set [4] is given as “reduced cleavage of the substrate”.
